Reference: paper PMC11480844 (2024)

B1: H2-Kb / Ed33 (parent complex)
chain 1: SQLAEENSWALSVHEGESVTVNCSYKTSITALQWYRQKSGKGPAQLILIRSNEREKRNGRLRATLDTSSQSSSLSITATRCEDTAVYFCATDHNNAGAKLTFGGGTRLTVRP
chain 2: DAGVTQTPRHEVAEKGQTIILKCEPVSGHNDLFWYRQTKIQGLELLSYFRSKSLMEDGGAFKDRFKAEMLNSSFSTLKIQPTEPKDSAVYLCASSLYTNQAPLFGEGTRLSVL
chain 3: not shown
chain 4: IQKTPQIQVYSRHPPENGKPNILNCYVTQFHPPHIEIQMLKNGKKIPKVEMSDMSFSKDWSFYILAHTEFTPTETDTYACRVKHDSMAEPKTVYWDRDM
chain 5: SIINFEKL
B2: H2-Kb / Ed40 (parent complex)
chain 1: GDSVTQTEGPVTVSESESLIINCTYSATSIAYPNLFWYVRYPGEGLQLLLKVITAGQKGSSRGFEATYNKETTSFHLQKASVQESDSAVYYCALGDGYTGNYKYVFGAGTRLKVIA
chain 2: DSGVVQSPRHIIKEKGGRSVLTCIPISGHSNVVWYQQTLGKELKFLIQHYEKVERDKGFLPSRFSVQQFDDYHSEMNMSALELEDSAMYFCASSGASAETLYFGSGTRLTVL
chain 3: not shown
chain 4: B1 chain 4
chain 5: SIINFEKL

Variants of: B1
Assay: % of reporter cells activated (NFAT-GFP), raw
Further: test concentration or dose not given here.

Variant	ratio to parent
chain 5 F5M	1.09
chain 5 F5Y	1.04
chain 5 F5L	0.916
chain 5 L8V	0.815
chain 5 L8G	0.87
chain 5 L8T	0.929
chain 5 E6L	0.00458
chain 5 E6S	0.0699
chain 5 N4M	0.00151
chain 5 N4I	0.271
chain 5 N4V	0.181
chain 5 N4Y	0.0163
chain 5 I3A	1.03
chain 5 I3C	1.02
chain 5 K7D	0.0503
chain 5 K7L	0.0519
chain 5 S1T	0.61
chain 5 I2W	0.738
chain 5 I2M	1.08
chain 5 I2S	0.691

Variants of: B2
Assay: % of reporter cells activated (NFAT-GFP), raw

Variant	ratio to parent
chain 5 E6I	0.00278
chain 5 E6W	0.0475
chain 5 E6Y	0.0704
chain 5 E6L	0.11
chain 5 E6P	0.164
chain 5 E6D	0.844
chain 5 E6R	0.675
chain 5 E6F	0.0664
chain 5 E6V	0.00511
chain 5 E6S	0.162
chain 5 E6M	0.172
chain 5 E6K	0.634
chain 5 E6N	0.287
chain 5 E6T	0.0789
chain 5 E6Q	0.527
chain 5 E6C	0.0158
chain 5 E6A	0.445
chain 5 I3S	0.789
chain 5 I3E	0.545
chain 5 I3Q	0.329
chain 5 I3P	0.601
chain 5 I3D	0.166
chain 5 I3L	0.895
chain 5 I3M	0.462
chain 5 I3F	0.641
chain 5 I3N	0.534

Variant	ratio to parent
chain 5 I3R	0.207
chain 5 I3H	0.67
chain 5 I3K	0.791
chain 5 I3W	0.488
chain 5 I3A	0.28
chain 5 N4D	0.00665
chain 5 N4R	0.362
chain 5 N4W	0.00287
chain 5 N4P	0.00321
chain 5 N4M	0.00232
chain 5 N4A	0.0166
chain 5 N4Q	0.00152
chain 5 N4E	0.00154
chain 5 N4I	0.02
chain 5 N4G	0.0118
chain 5 N4C	0.0253
chain 5 N4L	0.086
chain 5 N4V	0.00392
chain 5 N4K	0.0365
chain 5 N4H	0.0593
chain 5 N4S	0.0147
chain 5 N4F	0.00938
chain 5 L8D	0.546
chain 5 L8F	0.993
chain 5 L8W	0.787
chain 5 L8H	0.822

Variant	ratio to parent
chain 5 L8I	0.95
chain 5 L8E	0.612
chain 5 L8R	0.785
chain 5 L8S	0.681
chain 5 L8M	0.897
chain 5 L8V	0.831
chain 5 L8C	0.555
chain 5 L8P	0.651
chain 5 L8A	0.816
chain 5 L8Q	0.716
chain 5 L8Y	0.96
chain 5 L8K	0.816
chain 5 L8N	0.645
chain 5 F5N	0.891
chain 5 F5Y	1.11
chain 5 F5V	0.868
chain 5 F5K	0.685
chain 5 F5G	0.78
chain 5 F5R	0.938
chain 5 F5M	0.856
chain 5 F5P	0.944
chain 5 F5L	0.906
chain 5 F5H	1.06
chain 5 F5D	0.49
chain 5 F5A	0.944
chain 5 F5C	1.01

Variant	ratio to parent
chain 5 F5S	1.09
chain 5 F5Q	0.601
chain 5 F5T	1.22
chain 5 F5I	0.615
chain 5 F5W	1.02
chain 5 I2D	1.2
chain 5 I2P	1.07
chain 5 I2T	1.18
chain 5 I2W	0.654
chain 5 I2Q	0.697
chain 5 I2Y	0.834
chain 5 I2H	0.7
chain 5 I2C	1.02
chain 5 I2K	0.968
chain 5 I2L	1.14
chain 5 I2N	0.757
chain 5 I2E	0.869
chain 5 I2V	1.15
chain 5 I2M	0.913
chain 5 I2R	0.958
chain 5 I2A	1.13
chain 5 I2F	1
chain 5 S1C	0.615
chain 5 S1H	0.914
chain 5 S1I	0.597
chain 5 S1Y	0.977

Variant	ratio to parent
chain 5 S1A	1.01
chain 5 S1R	0.532
chain 5 S1F	0.765
chain 5 S1T	0.92
chain 5 S1E	0.432
chain 5 S1N	0.31
chain 5 S1M	0.993
chain 5 S1P	0.576
chain 5 S1L	0.466
chain 5 S1V	0.738
chain 5 K7W	0.644
chain 5 K7I	0.165
chain 5 K7S	0.648
chain 5 K7M	0.0429
chain 5 K7N	0.163
chain 5 K7D	0.0102
chain 5 K7C	0.0448
chain 5 K7H	0.754
chain 5 K7P	0.296
chain 5 K7Q	0.121
chain 5 K7E	0.00653
chain 5 K7Y	0.444
chain 5 K7F	0.0192
chain 5 K7A	0.343
chain 5 K7V	0.224
chain 5 K7G	0.382
